How the values were obtained:
[1] = biological target: recombinant Hepatitis B virus surface antigen (HBsAg) (Hepatitis B virus); experiment: ELISA on coated recombinant HBsAg
[2] = biological target: recombinant Hepatitis B virus surface antigen (HBsAg) (Hepatitis B virus); experiment: immunoaffinity column, scFv on Sepharose CL-4B; Expt. 1, pure HBsAg, 2 mg loaded
[3] = biological target: recombinant Hepatitis B virus surface antigen (HBsAg) (Hepatitis B virus); experiment: immunoaffinity column, scFv on Sepharose CL-4B; Expt. 2, pure HBsAg, 2 mg loaded
[4] = biological target: recombinant Hepatitis B virus surface antigen (HBsAg) (Hepatitis B virus); experiment: immunoaffinity column, scFv on Sepharose CL-4B; Expt. 3, pure HBsAg, 2 mg loaded
[5] = biological target: recombinant Hepatitis B virus surface antigen (HBsAg) (Hepatitis B virus); experiment: ELISA; scFv without HBsAg in solution, molar ratio fragment:antigen 1:0 (reference)
[6] = biological target: recombinant Hepatitis B virus surface antigen (HBsAg) (Hepatitis B virus); experiment: immunoaffinity column, scFv on Sepharose CL-4B; Expt. 4, crude semipurified HBsAg, 2 mg loaded
[7] = biological target: recombinant Hepatitis B virus surface antigen (HBsAg) (Hepatitis B virus); experiment: immunoaffinity column, scFv on Sepharose CL-4B; Expt. 5, crude semipurified HBsAg, 2 mg loaded
[8] = biological target: recombinant Hepatitis B virus surface antigen (HBsAg) (Hepatitis B virus); experiment: immunoaffinity column, scFv on Sepharose CL-4B; Expt. 6, crude semipurified HBsAg, 2 mg loaded
[9] = biological target: recombinant Hepatitis B virus surface antigen (HBsAg) (Hepatitis B virus); experiment: scFv on Sepharose CL-4B; saturating pure HBsAg applied, eluted with 3 M KSCN (gel without ligand: 0.012 mg)
[10] = biological target: recombinant Hepatitis B virus surface antigen (HBsAg) (Hepatitis B virus); experiment: ELISA; scFv preincubated with HBsAg in solution, molar ratio fragment:antigen 1:0.7; inhibition of binding to coated HBsAg
[11] = biological target: recombinant Hepatitis B virus surface antigen (HBsAg) (Hepatitis B virus); experiment: ELISA; scFv preincubated with HBsAg in solution, molar ratio fragment:antigen 1:3.5; inhibition of binding to coated HBsAg
[12] = biological target: recombinant Hepatitis B virus surface antigen (HBsAg) (Hepatitis B virus); experiment: ELISA; scFv preincubated with HBsAg in solution, molar ratio fragment:antigen 1:0.14; inhibition of binding to coated HBsAg
[13] = biological target: recombinant Hepatitis B virus surface antigen (HBsAg) (Hepatitis B virus); experiment: ELISA, plates coated with recombinant HBsAg 5 ug/ml; renatured scFv, not purified; detected with rabbit anti-Fab and Protein A-HRP
[14] = biological target: recombinant Hepatitis B virus surface antigen (HBsAg) (Hepatitis B virus); experiment: ELISA, plates coated with recombinant HBsAg 5 ug/ml; renatured and IMAC-purified scFv; detected with rabbit anti-Fab and Protein A-HRP

- optimal binding concentration (saturation) [1]: 37 µg/mL
- mg HBsAg eluted/ml gel (mg HBsAg eluted/ml gel) [2]: 0.54
- mg HBsAg eluted/ml gel (mg HBsAg eluted/ml gel) [3]: 0.34
- mg HBsAg eluted/ml gel (mg HBsAg eluted/ml gel) [4]: 0.51
- % inhibition [5]: 0%
- mg HBsAg eluted/ml gel (mg HBsAg eluted/ml gel) [6]: 0.45
- mg HBsAg eluted/ml gel (mg HBsAg eluted/ml gel) [7]: 0.26
- mg HBsAg eluted/ml gel (mg HBsAg eluted/ml gel) [8]: 0.42
- Amount of eluted HBsAg [9]: 0.126 mg
- % inhibition [10]: 76.4%
- % inhibition [11]: 95.1%
- % inhibition [12]: 12.8%
- Absorbance at 492 nm (absorbance at 492 nm) [13]: 1.54
- Absorbance at 492 nm (absorbance at 492 nm) [14]: 0.68
Substance: anti-HBsAg scFv (recombinant single chain Fv antibody fragment, VH-linker-VL, from MAb CB-Hep.1, expressed in E. coli from pPACIB.1/scFv anti HBsAg)
